Laboratory results from paper PMC9638933.

How the values were obtained:
[1] = target: Kumin (M. tuberculosis Ku without the extended C-terminus) (M. tuberculosis); assay: SEC-MALS; 50 uM protein in 50 mM HEPES pH 8.0, 1 mM EDTA, 200 mM NaCl; Superdex 200 Increase 10/300 GL; MiniDAWN and Optilab
[2] = target: Kumin (M. tuberculosis Ku without the extended C-terminus) (M. tuberculosis); assay: BLI; Octet RED96, 37°C, 1000 rpm; biotinylated Ku (25 ug/ml) loaded on streptavidin biosensors; LigD, LIG or POL as analyte (12.5 ug/ml), 300 s association, 300 s dissociation; 1x kinetics buffer (0.1% BSA, 0.02% Tween-20, 0.05% sodium azide in PBS); grouped global fit
LigD = LigD (UniProt P9WNV3 1-759); assay: fluorescence polarization; EMSA: 50 mM Tris-HCl pH 8.0, 50 mM NaCl, 1 mM DTT, 5 mM MgCl2, 4% glycerol, 0.025 mg/ml BSA, 10 nM DNA, 30 C 20 min; FP: 10 mM Tris-HCl pH 8, 10 mM NaCl, 10% glycerol, 1 mM TCEP, 50 nM DNA, 30 C; ternary EMSA: 20 mM Tris-HCl pH 8.0, 5 mM MgCl2, 5% glycerol, 37 C; bridging: 20 mM Tris-HCl pH 7.5, 50 mM KCl, 5 mM EDTA, 1 mM DTT, 5% glycerol, 40 ug/ml BSA, room temperature; conditions: protein: recombinant; tags: His (Ni-NTA purified; pMCSG7); label: 5' 6-FAM on strand 1; blunt
Chain of LigD (P9WNV3 whole entry): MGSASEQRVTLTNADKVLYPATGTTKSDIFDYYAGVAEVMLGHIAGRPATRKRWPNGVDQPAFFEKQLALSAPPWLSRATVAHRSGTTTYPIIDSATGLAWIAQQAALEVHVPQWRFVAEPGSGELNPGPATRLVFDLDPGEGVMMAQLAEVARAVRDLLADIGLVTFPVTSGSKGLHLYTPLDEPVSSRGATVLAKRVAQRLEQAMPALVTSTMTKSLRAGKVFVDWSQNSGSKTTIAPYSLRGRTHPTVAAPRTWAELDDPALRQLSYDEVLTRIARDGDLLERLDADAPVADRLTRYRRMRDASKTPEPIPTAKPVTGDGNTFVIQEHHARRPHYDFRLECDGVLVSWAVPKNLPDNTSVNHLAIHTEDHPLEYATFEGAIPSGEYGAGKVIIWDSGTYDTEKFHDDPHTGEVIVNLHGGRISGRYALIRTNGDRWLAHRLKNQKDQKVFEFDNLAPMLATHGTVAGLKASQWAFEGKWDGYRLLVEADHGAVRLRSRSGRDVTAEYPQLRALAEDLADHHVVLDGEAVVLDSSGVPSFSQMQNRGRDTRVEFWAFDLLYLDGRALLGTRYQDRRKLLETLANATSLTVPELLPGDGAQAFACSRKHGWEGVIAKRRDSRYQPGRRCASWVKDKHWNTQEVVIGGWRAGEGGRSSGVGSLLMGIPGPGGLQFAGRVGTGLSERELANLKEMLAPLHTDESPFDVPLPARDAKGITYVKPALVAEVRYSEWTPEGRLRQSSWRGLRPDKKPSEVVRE

KuWT [3] = target: T1, KuWT (Mycobacterium tuberculosis, UniProt P9WKD9 1-273); assay: EMSA; 5 mM Mg2+; EMSA: 50 mM Tris-HCl pH 8.0, 50 mM NaCl, 1 mM DTT, 5 mM MgCl2, 4% glycerol, 0.025 mg/ml BSA, 10 nM DNA, 30 C 20 min; FP: 10 mM Tris-HCl pH 8, 10 mM NaCl, 10% glycerol, 1 mM TCEP, 50 nM DNA, 30 C; ternary EMSA: 20 mM Tris-HCl pH 8.0, 5 mM MgCl2, 5% glycerol, 37 C; bridging: 20 mM Tris-HCl pH 7.5, 50 mM KCl, 5 mM EDTA, 1 mM DTT, 5% glycerol, 40 ug/ml BSA, room temperature; conditions: protein: recombinant; tags: His (Ni-NTA purified; pMCSG7); chain copies: 2; label: 5' 6-FAM on strand 1; blunt
T1 sequence: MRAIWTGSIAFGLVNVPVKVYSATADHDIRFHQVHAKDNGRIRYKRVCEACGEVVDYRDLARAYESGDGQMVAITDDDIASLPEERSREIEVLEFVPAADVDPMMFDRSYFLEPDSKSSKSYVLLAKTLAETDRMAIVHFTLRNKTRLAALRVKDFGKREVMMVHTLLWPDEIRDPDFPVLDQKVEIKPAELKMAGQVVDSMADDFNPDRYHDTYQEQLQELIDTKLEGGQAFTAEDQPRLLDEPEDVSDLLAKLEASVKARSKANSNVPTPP

[4] = target: the molecule itself; assay: SEC-MALS; 50 uM protein; 50 mM HEPES pH 8.0, 1 mM EDTA, 200 mM NaCl; Superdex 200 Increase 10/300 GL
Kumin [5] = target: T2, Kumin (Mycobacterium tuberculosis, UniProt P9WKD9 1-259); assay: EMSA; EMSA: 50 mM Tris-HCl pH 8.0, 50 mM NaCl, 1 mM DTT, 5 mM MgCl2, 4% glycerol, 0.025 mg/ml BSA, 10 nM DNA, 30 C 20 min; FP: 10 mM Tris-HCl pH 8, 10 mM NaCl, 10% glycerol, 1 mM TCEP, 50 nM DNA, 30 C; ternary EMSA: 20 mM Tris-HCl pH 8.0, 5 mM MgCl2, 5% glycerol, 37 C; bridging: 20 mM Tris-HCl pH 7.5, 50 mM KCl, 5 mM EDTA, 1 mM DTT, 5% glycerol, 40 ug/ml BSA, room temperature; conditions: protein: recombinant; tags: His (Ni-NTA purified; pMCSG7); chain copies: 2; label: 5' 6-FAM on strand 1; blunt
T2 sequence: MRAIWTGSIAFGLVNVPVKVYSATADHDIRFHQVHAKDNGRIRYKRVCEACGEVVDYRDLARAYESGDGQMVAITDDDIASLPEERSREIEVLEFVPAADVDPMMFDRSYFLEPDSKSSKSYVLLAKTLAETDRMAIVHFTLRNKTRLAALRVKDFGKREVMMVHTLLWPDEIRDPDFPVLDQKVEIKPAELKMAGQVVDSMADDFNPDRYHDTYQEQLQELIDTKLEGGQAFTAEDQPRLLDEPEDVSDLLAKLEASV

KuWT [6] = target: T1, KuWT; assay: as above; conditions: protein: recombinant; tags: His (Ni-NTA purified; pMCSG7); chain copies: 2; label: 5' 6-FAM on strand 1; blunt
Kucore [7] = target: T3, Kucore (Mycobacterium tuberculosis, UniProt P9WKD9 1-238); assay: as above; conditions: protein: recombinant; tags: His (Ni-NTA purified; pMCSG7); chain copies: 2; label: 5' 6-FAM on strand 1; blunt
T3 sequence: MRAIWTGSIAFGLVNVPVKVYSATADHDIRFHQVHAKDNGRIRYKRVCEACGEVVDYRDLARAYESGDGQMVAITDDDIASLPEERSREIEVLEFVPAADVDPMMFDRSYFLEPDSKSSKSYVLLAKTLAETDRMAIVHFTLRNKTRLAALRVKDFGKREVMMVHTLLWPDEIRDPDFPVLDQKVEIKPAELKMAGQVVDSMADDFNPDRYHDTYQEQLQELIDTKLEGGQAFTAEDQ

[8] = target: the molecule itself; assay: SEC-MALS; 50 uM protein in 50 mM HEPES pH 8.0, 1 mM EDTA, 200 mM NaCl; Superdex 200 Increase 10/300 GL; MiniDAWN and Optilab
[9] = target: T4, LigD (wildtype), Mycobacterium tuberculosis (M. tuberculosis, UniProt P9WNV3 1-759); assay: BLI; Octet RED96, 37°C, 1000 rpm; biotinylated Ku (25 ug/ml) loaded on streptavidin biosensors; LigD, LIG or POL as analyte (12.5 ug/ml), 300 s association, 300 s dissociation; 1x kinetics buffer (0.1% BSA, 0.02% Tween-20, 0.05% sodium azide in PBS); grouped global fit; conditions: both partners purified
T4 construct: The His tag is TEV-cleavable; also called wildtype LigD
T4 sequence (P9WNV3 whole entry): as the sequence (P9WNV3 whole entry) above

Kumin [10] = target: T2, Kumin; assay: EMSA; 5 mM Mg2+; EMSA: 50 mM Tris-HCl pH 8.0, 50 mM NaCl, 1 mM DTT, 5 mM MgCl2, 4% glycerol, 0.025 mg/ml BSA, 10 nM DNA, 30 C 20 min; FP: 10 mM Tris-HCl pH 8, 10 mM NaCl, 10% glycerol, 1 mM TCEP, 50 nM DNA, 30 C; ternary EMSA: 20 mM Tris-HCl pH 8.0, 5 mM MgCl2, 5% glycerol, 37 C; bridging: 20 mM Tris-HCl pH 7.5, 50 mM KCl, 5 mM EDTA, 1 mM DTT, 5% glycerol, 40 ug/ml BSA, room temperature; conditions: protein: recombinant; tags: His (Ni-NTA purified; pMCSG7); chain copies: 2; label: 5' 6-FAM on strand 1; blunt
Kucore [11] = target: T3, Kucore; assay: as above; conditions: protein: recombinant; tags: His (Ni-NTA purified; pMCSG7); chain copies: 2; label: 5' 6-FAM on strand 1; blunt

Kumin (M. tuberculosis Ku without the extended C-terminus) (domain or fragment)
stoichiometry N [1]: 2

LigD (wildtype), Mycobacterium tuberculosis (from UniProt P9WNV3 1-759) (enzyme)
Kd [2]: 288 nM

B1: 30 bp dsDNA (dsDNA)
DNA 1: CAGGAGGTGTAGGGAAGGGAATGTTGTCTG
DNA 2: CAGACAACATTCCCTTCCCTACACCTCCTG
binding result (LigD): binds | Kd (KuWT [3]): 1180 ± 90 nM

B2: Mycobacterium tuberculosis Kumin (extended C-terminus removed) (domain or fragment)
chain: T2 sequence
modifications: in BLI only: biotin (NHS-LC-Biotin) on K19, K37, K45, K117, K120, K127, K154, K184, K188, K193, K226, K254
notes: Ku of M. tuberculosis, UniProt P9WKD9, residues 1-259 (core domain and minimal C-terminal region); The His tag is TEV-cleavable (pMCSG7) and no cleavage is described; The protein was not biotinylated for SEC-MALS
stoichiometry N [4]: 2

B3: 10 bp dsDNA (dsDNA)
DNA 1: CAGGAAGGTG
DNA 2: CACCTTCCTG
Kd (LigD): 1100 ± 70 nM | binding result (Kumin [5]): no binding | binding result (KuWT [6]): no binding | binding result (Kucore [7]): no binding

B4: Mycobacterium tuberculosis Ku, wildtype (natural protein)
chain: T1 sequence
notes: The His tag is TEV-cleavable (pMCSG7) and no cleavage is described; also called KuWT
stoichiometry N [4]: 2

B5: Mycobacterium tuberculosis Kucore (entire C-terminus removed) (domain or fragment)
chain: T3 sequence
modifications: in BLI only: biotin (NHS-LC-Biotin) on K19, K37, K45, K117, K120, K127, K154, K158, K184, K188, K193, K226
notes: Ku of M. tuberculosis, UniProt P9WKD9, residues 1-238 (core domain); The His tag is TEV-cleavable (pMCSG7) and no cleavage is described; The protein was not biotinylated for SEC-MALS; also called Ku core domain
stoichiometry N [4]: 2

B6: Ku_(core) (M. tuberculosis Ku core domain, entire C-terminus removed) (domain or fragment)
chain: T3 sequence
modifications: biotinylated at multiple sites with NHS-LC-Biotin for BLI only (sites listed in Supplementary Table S3)
stoichiometry N [8]: 2 | Kd [9]: 200 nM

B7: 15 bp dsDNA (dsDNA)
DNA 1: CAGGAAGGGAATGTT
DNA 2: AACATTCCCTTCCTG
binding result (LigD): binds | Kd (KuWT [3]): 1630 ± 300 nM

B8: 20 bp dsDNA (dsDNA)
DNA 1: CAGGAAGGGAATGTTGTCTG
DNA 2: CAGACAACATTCCCTTCCTG
binding result (LigD): binds | binding result (Kumin [10]): binds | binding result (KuWT [3]): binds | binding result (Kucore [11]): binds
